Reference: patent US20260250421A1 (BIOCYTOGEN PHARMACEUTICALS BEIJING, published 2026)

Experiments:
[1] = target: T1, dog PTK7 on dog cancer cell lines (dog, UniProt A0A8I3N574 31-1070); experiment: flow cytometry on CMT-U27 and D-17 cells
T1 construct: whole, on cells; Endogenous protein on dog tumour cell lines; also called PTK7 on CMT-U27 and D-17 cells; dog cancer cells
T1 sequence: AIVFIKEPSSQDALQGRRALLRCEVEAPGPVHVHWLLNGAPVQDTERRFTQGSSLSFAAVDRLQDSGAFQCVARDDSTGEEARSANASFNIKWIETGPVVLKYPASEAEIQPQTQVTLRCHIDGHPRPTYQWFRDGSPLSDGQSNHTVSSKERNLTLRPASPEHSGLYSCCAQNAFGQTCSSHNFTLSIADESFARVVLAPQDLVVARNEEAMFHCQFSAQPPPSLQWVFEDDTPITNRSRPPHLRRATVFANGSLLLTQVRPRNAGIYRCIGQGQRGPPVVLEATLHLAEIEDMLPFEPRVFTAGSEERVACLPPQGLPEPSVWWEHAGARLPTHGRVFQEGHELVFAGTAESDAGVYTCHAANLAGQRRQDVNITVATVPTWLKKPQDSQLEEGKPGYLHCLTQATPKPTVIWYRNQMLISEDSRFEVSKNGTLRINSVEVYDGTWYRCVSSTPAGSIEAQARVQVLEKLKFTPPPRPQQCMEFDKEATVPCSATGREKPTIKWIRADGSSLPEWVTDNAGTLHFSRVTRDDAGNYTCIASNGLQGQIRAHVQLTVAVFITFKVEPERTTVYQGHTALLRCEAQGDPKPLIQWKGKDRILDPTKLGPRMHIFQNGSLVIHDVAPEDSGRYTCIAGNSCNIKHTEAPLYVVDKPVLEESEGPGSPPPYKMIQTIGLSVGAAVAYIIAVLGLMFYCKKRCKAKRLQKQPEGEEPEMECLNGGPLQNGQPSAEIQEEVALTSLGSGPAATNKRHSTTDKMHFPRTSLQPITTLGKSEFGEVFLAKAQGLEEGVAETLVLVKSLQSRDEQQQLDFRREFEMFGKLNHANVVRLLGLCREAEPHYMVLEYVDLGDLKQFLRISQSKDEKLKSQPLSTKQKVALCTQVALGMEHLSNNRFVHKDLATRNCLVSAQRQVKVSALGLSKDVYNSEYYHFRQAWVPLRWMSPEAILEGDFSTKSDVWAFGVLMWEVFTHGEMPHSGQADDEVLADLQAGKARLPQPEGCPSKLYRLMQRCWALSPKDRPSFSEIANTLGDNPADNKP
Protocol: (§1) The binding activity of anti-PTK7 antibodies to cancer cell lines was verified by flow cytometry. […] Purified anti-PTK7 antibody with a concentration of 5 μg/mL was added to each well and was incubated at 4° C. for 30 minutes. […] The cells were collected, and the mean fluorescence intensity (MFI) was determined. Human IgG1 was used as ISO control.

[2] = target: T2, His-tagged dog PTK7 protein (dog, UniProt Q13308 31-703 (human entry)); experiment: SPR Biacore 8K, Ab on Protein A chip
T2 construct: also called dPTK7-His
T2 chain: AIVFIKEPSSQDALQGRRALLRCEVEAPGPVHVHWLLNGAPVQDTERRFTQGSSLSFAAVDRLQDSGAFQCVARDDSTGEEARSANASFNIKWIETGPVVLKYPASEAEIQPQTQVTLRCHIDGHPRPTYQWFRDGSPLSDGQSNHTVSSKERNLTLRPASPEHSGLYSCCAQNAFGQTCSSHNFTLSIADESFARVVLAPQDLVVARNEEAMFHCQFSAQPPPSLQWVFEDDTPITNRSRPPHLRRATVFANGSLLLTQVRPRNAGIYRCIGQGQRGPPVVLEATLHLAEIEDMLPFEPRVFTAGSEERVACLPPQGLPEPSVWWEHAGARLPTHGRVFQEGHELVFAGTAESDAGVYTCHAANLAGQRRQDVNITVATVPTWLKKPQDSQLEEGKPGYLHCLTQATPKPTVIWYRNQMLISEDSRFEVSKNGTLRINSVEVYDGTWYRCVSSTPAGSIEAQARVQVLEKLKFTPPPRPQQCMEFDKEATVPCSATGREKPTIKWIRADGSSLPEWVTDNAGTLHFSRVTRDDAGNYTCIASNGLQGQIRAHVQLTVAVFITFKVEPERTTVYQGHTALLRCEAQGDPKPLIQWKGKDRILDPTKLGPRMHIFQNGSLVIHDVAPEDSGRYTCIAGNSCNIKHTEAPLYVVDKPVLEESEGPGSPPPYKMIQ
Protocol: Purified anti-PTK7 antibodies were diluted to 1 μg/mL and then injected into the Biacore™ 8K biosensor at 10 μL/min for about 50 seconds to achieve a desired protein density (e.g., about 50 response units (RU)). The His-tagged PTK7 protein at a concentration of 200 nM or 0 nM was then injected at 30 μL/min for 180 seconds. Dissociation was monitored for 400 seconds. The chip was regenerated after the last injection of each titration with glycine (pH 2.0, 30 μL/min for 30 seconds).

[3] = target: T1, dog PTK7 on dog cancer cell lines; experiment: flow cytometry, D-17 dog cells, Ab 5 ug/mL
Protocol: as §1

[4] = target: T1, dog PTK7 on dog cancer cell lines; experiment: flow cytometry, CMT-U27 dog cells, Ab 5 ug/mL
Protocol: as §1

[5] = target: T3, TROP2 on NCI-H1975 and NUGC-4 tumor cells (UniProt P09758 27-323, limits assumed); experiment: flow cytometry on NUGC-4 cells (only TROP2 expression), anti-hIgG-Fc Alexa Fluor 647 secondary antibody, MFI [B]
T3 construct: whole, on cells; species of the lines is not worded there; also called TROP2 on cells
T3 sequence (looked up): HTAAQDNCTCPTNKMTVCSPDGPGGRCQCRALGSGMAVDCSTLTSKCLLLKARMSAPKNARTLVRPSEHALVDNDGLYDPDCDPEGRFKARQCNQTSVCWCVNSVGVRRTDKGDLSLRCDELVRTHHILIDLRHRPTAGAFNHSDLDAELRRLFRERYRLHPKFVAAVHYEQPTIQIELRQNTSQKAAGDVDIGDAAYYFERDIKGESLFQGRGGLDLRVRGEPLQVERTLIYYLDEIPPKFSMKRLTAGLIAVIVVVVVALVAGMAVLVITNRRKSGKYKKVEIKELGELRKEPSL
Protocol: This experiment was performed to test the binding activities of the anti-PTK7/TROP2 bispecific antibodies to different tumor cell lines. NCI-H1975 cells or NUGC-4 cells were transferred to a 96-well plate at a density of 5×10⁴ cells/well respectively. The sample antibody was added to the 96-well plate, and incubated at 4° C. for 30 min.

binding result [1]: no binding (tested: 5 ug/mL) | binding result [2]: no binding (tested: 200 nM) | MFI [3]: 3690 | MFI [4]: 1940 | binding result [5]: no binding (tested: about 20 µg/mL)
B1: hu24 analog (antibody, IgG1, V domains shown)
VH: QVQLVQSGPEVKKPGASVKVSCKASGYTFTDYAVHWVRQAPGKRLEWIGVISTYNDYTYNNQDFKGRVTMTRDTSASTAYMELSRLRSEDTAVYYCARGNSYFYALDYWGQGTSVTVSS
VL: EIVLTQSPATLSLSPGERATLSCRASESVDSYGKSFMHWYQQKPGQAPRLLIYRASNLESGIPARFSGSGSGTDFTLTISSLEPEDFAVYYCQQSNEDPWTFGGGTKLEIK
notes: Humanized IgG1 monoclonal antibody targeting PTK7; also called positive control
